{
  "source": "paper PMC4243253",
  "proteins": {"B1": {"name": "BcKynB (Burkholderia cenocepacia J2315) (protein)", "chain": "MDTLWDISPPVSPATPVWPGDTPVAVERVWRMEAGSPVNVARLTLSPHTGAHCDAPLHYDADGAPIGAVPLDTYLGPCRVIHCIGAAPVVRPADVEAALDGVPPRVLLRTYARAAVEQWDSNFCAVAPDTVDLLAAHGVKLIGIDTPSLDPQESKTMDAHRRVRAHRMAILEGIVLDDVPPGDYELIALPLKFATLDASPVRAVLRALPAQAS"}},
  "substrate": "N[C@@H](CC(=O)c1ccccc1NC=O)C(=O)O",
  "experiment": "purified protein",
  "assay_type": "biochemical, Burkholderia cenocepacia",
  "details": "0.1 M sodium phosphate, pH 7.4, 20 μM ZnCl2, 25°C",
  "data": [
    {"protein": "B1", "values": [
      {"measurement": "Km", "value": "0.57 ± 0.02", "unit": "mM"},
      {"measurement": "Vmax", "value": 0.0582, "unit": "µmol/min"},
      {"measurement": "kcat", "value": 43.9, "unit": "s⁻¹"},
      {"measurement": "kcat/Km", "value": 77100, "unit": "M⁻¹ s⁻¹"}
    ]}
  ]
}
